This is an account of results in patent US20080317767A1, “Tripartitle Raftophilic Strutures and their Use” (priority 2004, published 2008).

A short description of this data set: Qualitative solubility assessment in an aqueous medium. Format: physicochemical.

Where a SMILES comes first, the peptide text is derived from it. [ ]: non-standard residue; d: D form. The star is where a group is joined. Piperazinyl(4-RhodamineB) = CCN(CC)c1ccc2c(-c3ccccc3C(=O)N3CCN(*)CC3)c3ccc(=[N+](CC)CC)cc-3oc2c1; X1 = CC(C)CCC[C@@H](C)[C@H]1CCC2C3CCC4C[C@@H](O*)CC[C@]4(C)C3CC[C@@]21C; Sta = CC(C)C[C@H](N)[C@@H](O)CC(=O)O; βAla = NCCC(=O)O

On to `CCN(CC)c1ccc2c(-c3ccccc3C(=O)N3CCN(C(=O)CC[C@H](N)C(=O)NCCC(=O)NCC(=O)N[C@@H](CCC(=O)O)C(=O)N[C@H](C(=O)N[C@@H](CC(N)=O)C(=O)N[C@@H](CC(C)C)[C@@H](O)CC(=O)N[C@H](C(=O)N[C@@H](C)C(=O)N[C@@H](CCC(=O)O)C(=O)N[C@@H](Cc4ccccc4)C(=O)N[C@@H](CCCNC(=N)N)C(=O)N[C@@H](Cc4c[nH]cn4)C(=O)N[C@@H](CC(=O)O)C(=O)N[C@@H](CO)C(=O)NCC(=O)N[C@@H](Cc4ccc(O)cc4)C(=O)N[C@@H](CCC(=O)O)C(=O)N[C@H](C(=O)N[C@@H](Cc4c[nH]cn4)C(=O)N[C@@H](Cc4c[nH]cn4)C(=O)N[C@@H](CCC(N)=O)C(=O)N[C@@H](CCCCN)C(=O)N[C@@H](CC(C)C)C(=O)N[C@H](C(=O)N[C@@H](Cc4ccccc4)C(=O)N[C@@H](Cc4ccccc4)C(=O)N[C@@H](C)C(=O)N[C@@H](CCC(=O)O)C(=O)N[C@@H](CC(=O)O)C(=O)N[C@H](C(=O)NCC(=O)N[C@@H](CO)C(=O)N[C@@H](CC(N)=O)C(=O)N[C@@H](CCCCN)C(=O)N[C@@H](CC(=O)O[C@H]4CC[C@@]5(C)C(CCC6C5CC[C@@]5(C)C6CC[C@@H]5[C@H](C)CCCC(C)C)C4)C(N)=O)C(C)C)C(C)C)C(C)C)C(C)C)C(C)C)CC3)c3ccc(=[N+](CC)CC)cc-3oc2c1` (stereo partly shown) [compound 24b] (H-E(Piperazinyl(4-RhodamineB))[βAla]GEVN[Sta]VAEFRHDSGYEVHHQKLVFFAEDVGSNKD(X1)-NH2), for which the “solubility in an aqueous medium (qualitative comparison of 24b and 25b)” value is “higher solubility”.
